Measured values from patent US11542537B2, “High-purity steviol glycosides” (PureCircle Sdn Bhd, priority 2012, dated 2023).

Assay: Directed evolution of UGT76G1 round 1, variant lysates, Rebaudioside D to Rebaudioside M conversion and initial rate
Assay type: biochemical
Protocol: Lysis was performed by addition of Bugbuster® Master mix (Novagen®) to the thawed cells and the lysate was recovered by centrifugation. Activity tests were performed with 100 μL of fresh lysate that was added to a solution of Rebaudioside D (final concentration 0.5 mM), MgCl2 (final concentration 3 mM) and UDP-Glucose (final concentration 2.5 mM) in 50 mM phosphate buffer pH 7.2.
The reaction was allowed to run at 30° C. and samples were taken after 2, 4, 7 and 24 h. to determine conversion and initial rate by HPLC (CAD detection) using the analytical method that was described above for the transformation of Rebaudioside D to Rebaudioside M. The results are depicted in the following table.

B1: UGT76G1var94: UGT76G1 variant containing mutations Q266E_P272A_R334K_G348P_L379G (protein, UniProt Q6VAB4 1-458, looked up, variant Q266E P272A R334K G348P L379G)
UDP-glycosyltransferase 76G1: MENKTETTVRRRRRIILFPVPFQGHINPILQLANVLYSKGFSITIFHTNFNKPKTSNYPHFTFRFILDNDPQDERISNLPTHGPLAGMRIPIINEHGADELRRELELLMLASEEDEEVSCLITDALWYFAQSVADSLNLRRLVLMTSSLFNFHAHVSLPQFDELGYLDPDDKTRLEEQASGFPMLKVKDIKSAYSNWQILKEILGKMIKQTKASSGVIWNSFKELEESELETVIREIPAPSFLIPLPKHLTASSSSLLDHDRTVFEWLDQQAPSSVLYVSFGSTSEVDEKDFLEIARGLVDSKQSFLWVVRPGFVKGSTWVEPLPDGFLGERGKIVKWVPQQEVLAHPAIGAFWTHSGWNSTLESVCEGVPMIFSDFGGDQPLNARYMSDVLKVGVYLENGWERGEIANAIRRVMVDEEGEYIRQNARVLKQKADVSLMKGGSSYESLESLVSYISSL
activity ranking in first round of directed evolution, Rebaudioside D to Rebaudioside M: most active clone
